Results on 3 molecules are retold here after article PMC3098852, “Molecular Design, Functional Characterization and Structural Basis of a Protein Inhibitor Against the HIV-1 Pathogenicity Factor Nef” (PLoS ONE, 2011).

Experiment [1] deals with T1, HIV-1 NefSF2 wild type, full length (1-210), C210A (HIV-1 SF2, UniProt P03407, C210A).
T1 construct: source: E. coli BL21(DE3), purified (Ni-NTA, Superdex 75)
Put plainly: ITC. As to conditions: both partners purified.

In experiment [2] the target is T2, HIV-1 NefSF2 (Δ1-44), C210A (HIV-1 SF2, UniProt P03407 45-210, C210A).
T2 construct: source: E. coli BL21(DE3), purified (Ni-NTA, Superdex 75)
Put plainly: ITC. The note with it: both partners purified.

Broadly, the Kd is a measure of binding affinity in units of concentration. Read a low Kd as higher affinity. A word on the stoichiometry N: it is a count of units in the complex or per binding partner.

B1: GST-NI1-2, GST fusion of Hck-SH3 (78-138) with RT loop V90SWSPD (domain or fragment)
chain: not shown
notes: source: bacteria (pGEX-4T1 Tev vector), purified (GSH resin, Superdex 75); not shown: GST, N-terminal, kept
Regarding B1, in experiment [1], the dissociation constant (Kd) came out at 140 ± 6.7 nM, the dH was -8.9 ± 0.02 kcal/mol and the “stoichiometry N” value came to 1.07.

B2: NI1-2, Hck-SH3 (78-138) with RT loop V90SWSPD (domain or fragment)
chain: not shown
notes: source: bacteria (pGEX-4T1 Tev vector), purified (GSH resin, Superdex 75)
B2: in experiment [2], the dissociation constant (Kd) was determined as 179 ± 29 nM, the dH is -8.16 ± 0.07 kcal/mol and the “stoichiometry N” value came to 0.99.

B3: NI1-3, Hck-SH3 (78-138) with RT loop Y90SPFSW (domain or fragment)
chain: SEDIIVVALYDYYSPFSWDLSFQKGDQMVVLEESGEWWKARSLATRKEGYIPSNYVARVDS
notes: as for B2
As to B3, in experiment [2], the affinity, expressed as Kd, was 48 ± 11 nM; the dH is -7.99 ± 0.07 kcal/mol; the “stoichiometry N” value was 0.95.
